Experimental data reported in patent publication US5550216A, “Gelatinase A inhibitor, and analytical reagent thereof for the determination of gelatinase A” (Oriental Yeast Co., Ltd., priority 1993, dated 1996).
Values belong to the molecule of their own block, whether it stands above or below them.

Key:
[1] = biological target: T1, gelatinase A (Homo sapiens, UniProt P08253); test: Hydrolysis of synthetic peptide βAP10-20 by activated gelatinase A (reverse phase HPLC), enzyme kinetic analysis; format: biochemical; settings: hydrolysis of β-AP10-20 by APMA/stromelysin activated gelatinase A; from slope of Dixon plot (1/v vs (I))
T1 construct: made in house; host or cells: Natural (endogenous) secretion of the T98G human glioblastoma cell line
T1 sequence (P08253 110-660): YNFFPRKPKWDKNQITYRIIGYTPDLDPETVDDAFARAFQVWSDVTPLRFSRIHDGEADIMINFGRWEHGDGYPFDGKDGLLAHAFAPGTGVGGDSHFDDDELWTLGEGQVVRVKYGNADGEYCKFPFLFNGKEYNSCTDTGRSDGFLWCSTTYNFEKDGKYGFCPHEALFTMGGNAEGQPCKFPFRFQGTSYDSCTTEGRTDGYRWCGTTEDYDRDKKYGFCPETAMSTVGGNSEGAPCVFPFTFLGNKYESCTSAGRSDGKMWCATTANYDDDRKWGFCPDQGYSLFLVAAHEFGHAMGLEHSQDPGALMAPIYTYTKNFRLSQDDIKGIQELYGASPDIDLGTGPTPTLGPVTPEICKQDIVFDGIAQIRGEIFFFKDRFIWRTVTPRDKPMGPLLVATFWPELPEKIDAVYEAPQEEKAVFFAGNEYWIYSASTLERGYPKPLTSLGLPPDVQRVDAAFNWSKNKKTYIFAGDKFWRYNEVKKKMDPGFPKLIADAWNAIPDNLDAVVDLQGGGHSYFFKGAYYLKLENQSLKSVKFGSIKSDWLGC
Method: (§1) FIGS. 5 (A) and (B) show the degradation of synthetic peptide βAP10-20by gelatinase A. By heparin affinity chromatography according to the method by (Kelkenbrock), TIMP-2-free progelatinase A was isolated from TIMP-2 binding form. Proenzyme (1 μg) was activated by incubating for 1 hour at 37° C. in 20 mMTris-HCl (pH 7.5) containing 10 mMCa^2+ with 1 mMAPMA and 0.25 μg of rat stromelysin. Then, the activated enzyme was incubated for 6 hours at 37° C. in the absence or presence of 5 μg of 100-kDa APP in 50 μl of Tris-HCl/Ca^2+ buffer with 20 nmol (28 μg) of synthetic peptide β-AP10-20 (cf. FIG. 2D). Then the mixture was admixed with 0.5 ml of 0.05% trifluoroacetic acid (TFA), and loaded to Cosmosil 5C18 reverse phase HPLC column (4.6×150 mm) (Nacalai Tesque, Kyoto, Japan). The column was eluted at the flow rate of 0.5 ml/min with 15 ml of 0 to 80% linear gradient acetonitrile in 0.05% TFA. The amino acid sequence of the […] was analyzed by a protein sequencer. As previously reported, rat stromelysin was purified with the proenzyme form and activated by APMA. Under the condition described above, stromelysin hardly hydrolyzed βAP10-20.
(§2) FIG. 5(A) and (B) represent enzyme kinetic analysis of the inhibition of gelatinase A activity by 100-bDa APP. […] The maximum concentration of 100-kDa APP ([…]) corresponded to about 910 nM. […]

[2] = biological target: T2, human progelatinase A (Homo sapiens, UniProt P08253); test: Reverse zymography of gelatinase A inhibitor on gelatine-containing SDS polyacrylamide gel; format: biochemical; settings: 0.2 μg/lane protein; gel incubated with 1 μg/ml human progelatinase A and 1 mM APMA
T2 construct: obtained from the culture supernatant of T98G human glioblastoma cell line; made in house; host or cells: Natural (endogenous) secretion of the T98G human glioblastoma cell line, purified from the culture supernatant
T2 sequence (P08253 110-660): T1 sequence (P08253 110-660)
Description: The large triangle arrow represents 100-kDa inhibitor. Three small triangle arrows represent TIMP (28 kDa), unidentified 22-kDa inhibitor and TIMP-2 (20 kDa). The bands of negative image (white lines) indicate gelatine degradation activity secreted by tumor cells. b represents the results of non-reductive SDS-PAGE of purified 100-kDa inhibitor, while c represents the results of SDS-PAGE (lanes 1 to 3) and the reverse zymograms of 100-kDa inhibitor (lane 1, 2, 4 and 5) and human TIMP (lane 3 and 6). Equal amount (0.2 μg/lane) of the protein was analyzed under reductive condition (lanes 2 and 5) and non-reductive condition (lane 1, 3, 4 and 6). […] 100-kDa inhibitor (200 μg) was incubated with 0.3 μg of endoproteinase Lys-C (Sigma, St. Louis, Mo.) for 60 minutes at 30° C. in 60 μl of 50 mM Tris-HCl (pH 7.5) containing 2M urea and 1M NaCl, and a part of digestion products were subjected to electrophoresis. As a result, a peptide from 439V through 687 k of the amino acid sequence in FIG. 1 was obtained.
The supernatant of EJ-1 cell culture which had been incubated for 2 days in serum-free RPMI1640 medium was used for the preparation. The reverse zympgraphy of gelatinase A inhibitor was conducted on polyacrylamide gel containing 0.1% SDS and 1 mg/ml of gelatine by a modified Herroh's method. […]

[3] = substrate: CC(C)C[C@H](NC(=O)[C@H](CCCCN)NC(=O)[C@H](CCC(N)=O)NC(=O)[C@H](Cc1c[nH]cn1)NC(=O)[C@H](Cc1c[nH]cn1)NC(=O)[C@@H](NC(=O)[C@H](CCC(=O)O)NC(=O)[C@@H](N)Cc1ccc(O)cc1)C(C)C)C(=O)N[C@H](C(=O)N[C@@H](Cc1ccccc1)C(=O)N[C@@H](Cc1ccccc1)C(=O)O)C(C)C; test: Hydrolysis of synthetic peptide βAP10-20 by activated gelatinase A (reverse phase HPLC), enzyme kinetic analysis; format: biochemical, human; settings: other: hydrolysis of βAP10-20 by activated gelatinase A; Lineweaver-Burk plots, 30 to 400 μM substrate; pH 7.5
Method: as §1, §2

Ki [1]: 40 nM
Molecule: 100-kDa APP: secretory form of APP (gelatinase A inhibition protein), 100k, from EJ-1 culture fluid; 18L through 687K of APP770
inhibitor bands on the reverse zymograms [2]: markedly stained gelatine bands (inhibitor bands)

Molecule: human TIMP: known gelatinase inhibitor (28 kDa) used as comparison in reverse zymography [reference compound]
inhibitor bands on the reverse zymograms [2]: markedly stained gelatine bands (inhibitor bands)

B1: gelatinase A (Homo sapiens) (protein)
chain: T1 sequence (P08253 110-660)
notes: made in house; host or cells: Natural (endogenous) secretion of the T98G human glioblastoma cell line
Km [3]: 130 µM
Vmax [3]: 3.9 nmol/h
